# Laboratory results from US20130303393A1 (RESEARCH DEVELOPMENT FOUNDATION, published 2013).
# Numbering of substitutions follows the chain as printed.
# B1: YMB2 IgG (antibody, V domains shown)
# VH: EVQLQQSGAELVKPGASVKLSCTASGFNIKDTYMHWVKQRPEQGLEWIGRIDPENGNTKYDPKFQGKATITADTSSNTAYLQLSSLTSEDTAVYYCARFLITTGYFDYWGQGTTLTVSS
# VL: DIVLTQSHKFMSTSVGDRVSITCKASQDVGTAVAWYQQKPGQSPKLLIYWASTRHTGVPDRFTGSGSGTDFTLTISNVQSEDLADYFCQQYSSYPLTFGAGTKLEIKR
# B2: YMF10 IgG (antibody, V domains shown)
# VH: EVQLQQSGAELVRSGASVKLSCTASGFNIKDYYMHWVKQRPEQGLEWIGWIDPENGDTEYAPKFQGKATMSADTSSNTAYLQLSSLTSEDTAVYYCNAGTPFEGLRRADYWGQGTTLTVSS
# VL: B1 VL with L4M, I106L, K107N
# B3: YMD1 IgG (antibody, V domains shown)
# VH: B2 VH with Q5V, Q6E, S71T, R107K
# VL: B1 VL with L4M, F10L, K45R, S76T, L96Y, A100G
# Biological target: PA-63 (Bacillus anthracis, UniProt P13423 197-764)
# Sequence (P13423 197-764 limits assumed): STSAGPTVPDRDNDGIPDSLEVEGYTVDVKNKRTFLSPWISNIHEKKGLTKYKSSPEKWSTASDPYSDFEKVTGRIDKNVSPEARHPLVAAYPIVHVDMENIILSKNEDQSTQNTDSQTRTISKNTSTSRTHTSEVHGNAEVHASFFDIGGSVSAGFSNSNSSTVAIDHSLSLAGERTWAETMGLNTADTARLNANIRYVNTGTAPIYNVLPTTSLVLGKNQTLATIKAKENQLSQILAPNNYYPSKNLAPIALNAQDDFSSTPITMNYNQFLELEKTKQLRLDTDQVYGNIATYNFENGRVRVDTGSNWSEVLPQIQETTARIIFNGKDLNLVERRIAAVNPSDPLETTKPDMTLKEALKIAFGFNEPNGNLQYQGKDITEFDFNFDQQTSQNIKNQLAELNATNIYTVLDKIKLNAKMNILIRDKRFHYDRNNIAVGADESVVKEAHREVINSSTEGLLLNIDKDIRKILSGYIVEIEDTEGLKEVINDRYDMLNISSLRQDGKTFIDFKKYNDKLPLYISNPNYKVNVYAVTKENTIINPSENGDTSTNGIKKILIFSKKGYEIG
binder,measurement,value
B1,Kd,437 nM
same,koff,0.014 s⁻¹
same,kon,32000 M⁻¹ s⁻¹
B2,Kd,31 nM
same,koff,0.015 s⁻¹
same,kon,490000 M⁻¹ s⁻¹
B3,Kd,55 nM
same,koff,0.019 s⁻¹
same,kon,350000 M⁻¹ s⁻¹
